Assay results reported in publication PMC5384775.

Columns and labels:
[1] = molecular target: filamentous actin (F-actin) (UniProt P68135); test: co-sedimentation; His-tagged vinculin or mutants (2 uM; WT also at 0.25 uM with 10 or 25 uM peptide) with 4 uM pre-polymerized F-actin and 25 uM VBS3(talin) peptide as activator; 50 mM Tris-HCl pH 8.0, 0.2 mM MgCl2, 0.2 mM ATP, 1 mM DTT; 1 h at 24 C; 150,000 x g 1 h at 4 C; SDS-PAGE, CBB staining, ratio of precipitated to total vinculin by ImageJ
[2] = molecular target: filamentous actin (F-actin) (UniProt P68135); test: co-sedimentation; His-tagged vinculin or mutants (1 uM) with 4 uM pre-polymerized F-actin and 10 uM GST-VBS(IpaA 610-633) as activator; 50 mM Tris-HCl pH 8.0, 0.2 mM MgCl2, 0.2 mM ATP, 1 mM DTT; 1 h at 24 C; 150,000 x g 1 h at 4 C; SDS-PAGE, CBB staining, ratio of precipitated to total vinculin by ImageJ
[3] = molecular target: filamentous actin (F-actin), P68135; test: actin co-sedimentation assay; settings: chain shown with the change

In the case of “His-tagged WT vinculin (from UniProt Q64727 1-1066) (natural protein)”, the percent of vinculin coprecipitated with F-actin [1] is reported as 40% and the percent of vinculin coprecipitated with F-actin [2] is reported as 84%.

In the case of “His-tagged vinculin IA mutant (I997A) (from UniProt Q64727 1-1066) (natural protein)”, the percent of vinculin coprecipitated with F-actin [2] is reported as 42%.

Molecule “His-tagged vinculin VA mutant (V1001A) (from UniProt Q64727 1-1066) (natural protein)” has a percent of vinculin coprecipitated with F-actin [2] of 53%.

B1: His-tagged WT vinculin, Q64727 D974A; K975A; R976A; R978A (protein)
chain: MPVFHTRTIESILEPVAQQISHLVIMHEEGEVDGKAIPDLTAPVAAVQAAVSNLVRVGKETVQTTEDQILKRDMPPAFIKVENACTKLVQAAQMLQSDPYSVPARDYLIDGSRGILSGTSDLLLTFDEAEVRKIIRVCKGILEYLTVAEVVETMEDLVTYTKNLGPGMTKMAKMIDERQQELTHQEHRVMLVNSMNTVKELLPVLISAMKIFVTTKNSKNQGIEEALKNRNFTVEKMSAEINEIIRVLQLTSWDEDAWASKDTEAMKRALASIDSKLNQAKGWLRDPNASPGDAGEQAIRQILDEAGKVGELCAGKERREILGTCKMLGQMTDQVADLRARGQGASPVAMQKAQQVSQGLDVLTAKVENAARKLEAMTNSKQSIAKKIDAAQNWLADPNGGPEGEEQIRGALAEARKIAELCDDPKERDDILRSLGEIAALTSKLGDLRRQGKGDSPEARALAKQVATALQNLQTKTNRAVANSRPAKAAVHLEGKIEQAQRWIDNPTVDDRGVGQAAIRGLVAEGHRLANVMMGPYRQDLLAKCDRVDQLTAQLADLAARGEGESPQARALASQLQDSLKDLKAQMQEAMTQEVSDVFSDTTTPIKLLAVAATAPPDAPNREEVFDERAANFENHSGRLGATAEKAAAVGTANKSTVEGIQASVKTARELTPQVISAARILLRNPGNQAAYEHFETMKNQWIDNVEKMTGLVDEAIDTKSLLDASEEAIKKDLDKCKVAMANIQPQMLVAGATSIARRANRILLVAKREVENSEDPKFREAVKAASDELSKTISPMVMDAKAVAGNISDPGLQKSFLDSGYRILGAVAKVREAFQPQEPDFPPPPPDLEQLRLTDELAPPKPPLPEGEVPPPRPPPPEEKDEEFPEQKAGEVINQPMMMAARQLHDEARKWSSKGNDIIAAAKRMALLMAEMSRLVRGGSGTKRALIQCAKDIAKASDEVTRLAKEVAKQCTAAAIATNLLQVCERIPTISTQLKILSTVKATMLGRTNISDEESEQATEMLVHNAQNLMQSVKETVREAEAASIKIRTDAGFTLRWVRKTPWYQ
B1 gave a response ([3]; 2 μM His-tagged vinculin, 25 μM VBS3(talin), parent: est. 41, read off a plot) of 59%.

B2: His-tagged WT vinculin, Q64727 I997A; V1001A (protein)
chain: MPVFHTRTIESILEPVAQQISHLVIMHEEGEVDGKAIPDLTAPVAAVQAAVSNLVRVGKETVQTTEDQILKRDMPPAFIKVENACTKLVQAAQMLQSDPYSVPARDYLIDGSRGILSGTSDLLLTFDEAEVRKIIRVCKGILEYLTVAEVVETMEDLVTYTKNLGPGMTKMAKMIDERQQELTHQEHRVMLVNSMNTVKELLPVLISAMKIFVTTKNSKNQGIEEALKNRNFTVEKMSAEINEIIRVLQLTSWDEDAWASKDTEAMKRALASIDSKLNQAKGWLRDPNASPGDAGEQAIRQILDEAGKVGELCAGKERREILGTCKMLGQMTDQVADLRARGQGASPVAMQKAQQVSQGLDVLTAKVENAARKLEAMTNSKQSIAKKIDAAQNWLADPNGGPEGEEQIRGALAEARKIAELCDDPKERDDILRSLGEIAALTSKLGDLRRQGKGDSPEARALAKQVATALQNLQTKTNRAVANSRPAKAAVHLEGKIEQAQRWIDNPTVDDRGVGQAAIRGLVAEGHRLANVMMGPYRQDLLAKCDRVDQLTAQLADLAARGEGESPQARALASQLQDSLKDLKAQMQEAMTQEVSDVFSDTTTPIKLLAVAATAPPDAPNREEVFDERAANFENHSGRLGATAEKAAAVGTANKSTVEGIQASVKTARELTPQVISAARILLRNPGNQAAYEHFETMKNQWIDNVEKMTGLVDEAIDTKSLLDASEEAIKKDLDKCKVAMANIQPQMLVAGATSIARRANRILLVAKREVENSEDPKFREAVKAASDELSKTISPMVMDAKAVAGNISDPGLQKSFLDSGYRILGAVAKVREAFQPQEPDFPPPPPDLEQLRLTDELAPPKPPLPEGEVPPPRPPPPEEKDEEFPEQKAGEVINQPMMMAARQLHDEARKWSSKGNDIIAAAKRMALLMAEMSRLVRGGSGTKRALIQCAKDIAKASDEVTRLAKEVAKQCTDKRIRTNLLQVCERIPTISTQLKALSTAKATMLGRTNISDEESEQATEMLVHNAQNLMQSVKETVREAEAASIKIRTDAGFTLRWVRKTPWYQ
Molecule B2 has a response ([3]; 1 μM His-tagged vinculin, 10 μM GST-VBS(IpaA), parent: est. 84, read off a plot) of 43%.
